Legend:
[1] = molecular target: Isoform 121 of human VEGF-A (Peprotech) (human) (UniProt P15692); assay: ELISA, antigen coated at 5 µg/mL, KDR-Fc 0.5 µg/mL
[2] = molecular target: Isoform 121 of human VEGF-A (Peprotech) (human) (UniProt P15692); assay: ELISA, antigen coated at 5 µg/mL, KDR-Fc 1.0 µg/mL
[3] = molecular target: Isoform 121 of human VEGF-A (Peprotech) (human) (UniProt P15692); assay: ELISA, antigen coated at 5 µg/mL, KDR-Fc 0.25 µg/mL
[4] = molecular target: Isoform 121 of human VEGF-A (Peprotech) (human) (UniProt P15692); assay: ELISA, antigen coated at 5 µg/mL, KDR-Fc 0.125 µg/mL
[5] = molecular target: Isoform 121 of human VEGF-A (Peprotech) (human) (UniProt P15692); assay: ELISA on coated antigen, 20 µg/mL; negative control
[6] = molecular target: P6447aa-VEGF fusion protein (human (VEGF part); Neisseria meningitidis (P64K part)); assay: as above

Isoform 121 of human VEGF-A (Peprotech) (human), sequence (P15692 other isoform, or with tags, fused parts or gaps): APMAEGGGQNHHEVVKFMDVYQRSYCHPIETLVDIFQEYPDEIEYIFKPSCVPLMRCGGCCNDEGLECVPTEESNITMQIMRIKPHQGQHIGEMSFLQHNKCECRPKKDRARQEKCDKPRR
soluble human receptor KDR-Fc (Sigma), sequence (P35968 20-764 limits assumed): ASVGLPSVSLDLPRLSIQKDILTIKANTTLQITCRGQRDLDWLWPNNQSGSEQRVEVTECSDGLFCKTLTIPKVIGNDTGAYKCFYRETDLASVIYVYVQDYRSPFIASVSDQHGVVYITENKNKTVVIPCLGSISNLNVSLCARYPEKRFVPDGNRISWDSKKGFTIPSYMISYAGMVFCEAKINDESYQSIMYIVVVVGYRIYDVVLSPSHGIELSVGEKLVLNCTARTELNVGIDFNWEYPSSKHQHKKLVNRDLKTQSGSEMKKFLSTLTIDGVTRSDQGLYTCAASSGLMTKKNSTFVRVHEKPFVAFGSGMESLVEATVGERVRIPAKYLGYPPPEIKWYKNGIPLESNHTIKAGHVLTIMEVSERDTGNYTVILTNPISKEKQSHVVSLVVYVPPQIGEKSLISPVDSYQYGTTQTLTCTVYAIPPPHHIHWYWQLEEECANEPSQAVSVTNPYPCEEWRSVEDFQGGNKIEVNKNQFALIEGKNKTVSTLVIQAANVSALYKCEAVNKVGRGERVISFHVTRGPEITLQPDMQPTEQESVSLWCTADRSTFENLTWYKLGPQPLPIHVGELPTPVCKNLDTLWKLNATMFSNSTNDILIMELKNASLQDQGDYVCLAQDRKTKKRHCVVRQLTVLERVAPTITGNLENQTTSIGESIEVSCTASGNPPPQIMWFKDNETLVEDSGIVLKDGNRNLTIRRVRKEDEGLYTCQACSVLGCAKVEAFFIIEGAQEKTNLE

Row | absorbance at 492 nm [1] [OD 492 nm] | absorbance at 492 nm [2] [OD 492 nm] | absorbance at 492 nm [3] [OD 492 nm] | absorbance at 492 nm [4] [OD 492 nm] | Substance | absorbance at 492 nm [5] [OD 492 nm] | absorbance at 492 nm [6] [OD 492 nm]
1 | 1.27 | 1.48 | 1.04 | 0.76 | soluble human receptor KDR-Fc (Sigma) (from UniProt P35968 20-764) (Fc fusion) | – | –
2 | – | – | – | – | TheraCIM (anti EGF receptor humanized IgG1 antibody; CIMAB SA, Havana) | 0.097 | 0.112
